Seven molecules from publication PMC12046049, “Filamin C dimerisation is regulated by HSPB7” (Nature Communications, 2025) can be followed below.

What is called stoichiometry N is the number of molecules, sites or subunits per partner or assembly. In general, Kd refers to a measure of binding affinity in units of concentration.

Where a chain is given by its changes, count along the chain named. Numbers in names are those of the source.

The chains are these.
T1: HSPB5ACD (α-crystallin domain of HSPB5) (human)
T1 chain: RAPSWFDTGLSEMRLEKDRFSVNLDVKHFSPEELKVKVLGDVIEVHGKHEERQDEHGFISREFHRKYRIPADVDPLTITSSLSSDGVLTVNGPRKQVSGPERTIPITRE

B1: FLNCd24 (domain 24 of filamin C, residues 2630-2724), wild type (domain or fragment, human)
chain: GSKFSSDASKVVTRGPGLSQAFVGQKNSFTVDCSKAGTNMMMVGVHGPKTPCEEVYVKHMGNRVYNVTYTVKEKGDYILIVKWGDESVPGSPFKVKV
notes: residual Gly-Ser overhang left on the N-terminus after TEV cleavage of the His6 tag; filamin C, human, C-terminal Ig-like domain 24, residues 2630-2724; also called FLNCd24 WT; source: E. coli BL21(DE3), purified (HisTrap, TEV cleavage); not shown: His6, N-terminal, cleaved
B2: FLNCd24^T2677D (phosphomimic) (domain or fragment, human)
chain: B1 chain with T50D
notes: residual Gly-Ser overhang left on the N-terminus after TEV cleavage of the His6 tag; filamin C, human, domain 24, residues 2630-2724, T2677D; source: E. coli BL21(DE3), purified (HisTrap, TEV cleavage); not shown: His6, N-terminal, cleaved
B3: HSPB7ACD (α-crystallin domain, residues 78-162 of isoform 2) (domain or fragment)
chain: not shown
notes: residual Gly-Ser overhang left on the N-terminus after TEV cleavage of the His6 tag; HSPB7, human, core α-crystallin domain, residues 78-162 of isoform 2; numbers count on: isoform 2 (Q9UBY9-2); source: E. coli BL21(DE3), purified (HisTrap, TEV cleavage, HiTrap Q); not shown: His6, N-terminal, cleaved
B4: HSPB7ACD^C131S (domain or fragment)
chain: not shown
notes: residual Gly-Ser overhang left on the N-terminus after TEV cleavage of the His6 tag; HSPB7, human, core α-crystallin domain, residues 78-162 of isoform 2, C131S; numbers count on: isoform 2 (Q9UBY9-2); Mutation made to aid crystallisation; source: E. coli BL21(DE3), purified (HisTrap, TEV cleavage, HiTrap Q); not shown: His6, N-terminal, cleaved
B5: FLNCd24^Y2683E (phosphomimic) (domain or fragment, human)
chain: B1 chain with Y56E
notes: residual Gly-Ser overhang left on the N-terminus after TEV cleavage of the His6 tag; filamin C, human, domain 24, residues 2630-2724, Y2683E; source: E. coli BL21(DE3), purified (HisTrap, TEV cleavage); not shown: His6, N-terminal, cleaved
B6: HSPB1 C-terminal peptide (cognate peptide of HSPB1ACD) (peptide)
chain: ITIPVTFE
B7: HSPB5 C-terminal peptide (cognate peptide of HSPB5ACD) (peptide)
chain: ERTIPITRE
modifications: Limits are not printed. 156-164, containing the IPI motif, is taken by convention from the peptide in the HSPB5 ACD-peptide structure PDB 4M5S; check residues come from the IPI motif, not numbered in

Series [1] deals with the molecule itself. Put plainly: native MS; FLNCd24 alone, and mixed at a monomer ratio of 1:1 with HSPB7, HSPB7ΔN or HSPB7ACD; 200 mM ammonium acetate pH 6.9 (full-length HSPB7: 1 M).
Series [2] deals with T2, HSPB7ΔN (residues 78-175 of isoform 2) (human, UniProt Q9UBY9-2 78-175).
T2 construct: residual Gly-Ser overhang left on the N-terminus after TEV cleavage of the His6 tag; HSPB7, human, residues 78-175 of isoform 2 (lacks the N-terminal region); numbers count on: isoform 2 (Q9UBY9-2); source: E. coli BL21(DE3), purified (HisTrap, TEV cleavage, HiTrap Q); not shown: His6, N-terminal, cleaved
Put plainly: native MS; HSPB7 construct at a range of FLNCd24 concentrations; competitive homo- and hetero-dimerisation fitted as a system of coupled equilibria; 200 mM ammonium acetate pH 6.9. The conditions noted are these: both partners purified.

Series [3] concerns the molecule itself. Put plainly: native MS; titration of FLNCd24 (WT or phosphomimic) alone; dimer to monomers; 200 mM ammonium acetate pH 6.9; three technical repeats.
The target in series [4] is B2. Put plainly: native MS; HSPB7 construct at a range of FLNCd24 concentrations; competitive homo- and hetero-dimerisation fitted as a system of coupled equilibria; 200 mM ammonium acetate pH 6.9. The following applies: both partners purified.
For series [5], the target named is B5. The description is as above. The following applies: both partners purified.
Series [6] addresses B1. The series is described as above. The following applies: both partners purified.
For series [7], the target named is B1. Put plainly: crystal structure; HSPB7ACD^C131S and FLNCd24 mixed 4:1, heterodimer isolated by gel filtration in 20 mM HEPES pH 8.0; crystals in 0.1 mM HEPES, 20% w/v PEG 8000, pH 7.0; 2.9 Å. The conditions noted are these: both partners purified. In general terms: Size exclusion chromatography separates by hydrodynamic size, large species first.
The target of series [8] is T3, HSPB1ACD (α-crystallin domain of HSPB1) (human).
T3 construct: HSPB1, human, α-crystallin domain; also called ACD of HSPB1
As to the kind of experiment: native MS; ACD incubated with C-terminal peptide, peptide titration; 200 mM ammonium acetate pH 6.9; acetonitrile added to the source housing; fit with a Hill slope model for 1:1 binding. The following applies: both partners purified.

In series [9] the target is T1, HSPB5ACD (α-crystallin domain of HSPB5). Described as above. The following applies: both partners purified.

Regarding B1, the “stoichiometry N” value in series [1] stood at 2. The values for the Kd in series [2] and in [3] were 6.7 ± 1.4 nM and 75.9 ± 8.4 nM, respectively.

B2 came in with a Kd in series [3] of 8.5 ± 1 nM.

For B3, the Kd came to 14.1 ± 0.5 nM in series [4], 2.2 ± 0.6 nM in [5] and 3.9 ± 0.9 nM in [6].

For the molecule B4, the binding result in series [7] is “binds”.

Consider B5, for which the Kd in [3] was determined as 4050 ± 557 nM.

B6 showed a Kd in series [8] of at most 100000 nM.

The molecule B7 showed a Kd in series [9] of at most 100000 nM.
